Test results from patent publication US7329737 (DYAX, dated 2008).

Biological target: T1, hK1 (human tissue kallikrein 1), recombinant (human, UniProt P06870 25-262)
T1 construct: Expressed in P. pastoris from KLK1 cDNA and purified; enzymatically active; also called KLK1; Recombinant (Pichia) Kallikrein
Assay: SPR

Row | Binder | Kd [nM] | koff [s⁻¹] | kon [M⁻¹ s⁻¹]
1 | M0126-H09 (Fab, V domains shown) VH: EVQLLESGGGLVQPGGSLRLSCAASGFTFSNYTMMWVRQAPGKGLEWVSGIYPSGGQTAYADSVKGRFTISRDNSKNTLYLQMNSLRAEDTAVYYCARGGSWYAFDIWGQGTMVTVSS VL: AQSVLTQDPAVSVALGQTVRFTCQGDSLRNYHPSWYQQKPRQAPVLVMFGRNNRPSGIPDRFSGSTSGGTASLTITATQADDEADYFCSSRDGSGNFLFGGGTKLTVLG | 23 | 0.415 | 1.8e+07
2 | M0094-F03 (Fab, V domains shown) VH: EVQLLESGGGLVQPGGSLRLSCAASGFTFSWYQMSWVRQAPGKGLEWVSSIYPSGGATKYADSVKGRFTISRDNSKNTLYLQMNSLRAEDTAMYYCARMGLHHSFDYWGQGTLVTVSS VL: DIQMTQSPGTLSLSLGETATLSCRASQTVGGSYLAWYRQKPGQAPSLLIYAASNRAPGIPDRFSGSGSGTDFTLTISSLQSEDFAVYYCQQYGSSMYTFGQGTILEIKR | 16.7 | 0.00644 | –
3 | M0093-C10 (Fab, V domains shown) VH: EVQLLESGGGLVQPGGSLRLSCAASGFTFSRYTMEWVRQAPGKGLEWVSVIRPSGGTTMYADSVKGRFTISRDNSKNTLYLQMNSLRAEDMAVYYCARVGVWYGMDVWGQGTTVTVSS VL: DIQITQSPSSLSASVGDRVTITCRASQGISNYLAWYQQKPGKVPKLLIYAASTLQSGVPSRFSGSGSGTDFTLTISSLQPEDFATYYCEQLNSFPHAFGQGTKVEIKR | 22.6 | 0.00752 | 333000
4 | M0116-C09 (Fab, V domains shown) VH: EVQLLESGGGLVQPGGSLRLSCAASGFTFSNYKMHWVRQAPGKGLEWVSSIYPSGGWTVYADSVKGRFTISRDNSKNTLYLQMNSLRAEDTAVYYCATGYSSTWGAFDIWGQGTMVTVSS VL: AQSALTQPPSVSVSPGQTASITCFGDKLGDKYGSWYQQKPGQSPVLVLYQYWKRPSGIPERFSGSNSGNTATLTINVTQTMDEADYYCQAWDSNTVVFGGGTKLTVLG | 18.2 | 0.00947 | 520000
5 | M0124-G12 (Fab, V domains shown) VH: EVQLLESGGGLVQPGGSLRLSCAASGFTFSHYWMRWVRQAPGKGLEWVSSIGSSGGMTKYADSVKGRFTISRDNSKNTLYLQMNSLRAEDTAVYYCARALRWRAFDIWGQGTMVTVSS VL: DIQMTQSPSSVSASVGDRVTITCRASQGISSWLAWYQQKPGKAPKLLIYAASSLQSGVPSRFSGSGSGTDFTLTISSLQPEDFATYYCQQANSFPLTFGGGTKVEIKR | 17.2 | 0.0064 | 372000
6 | M0137-G10 (Fab, V domains shown) VH: EVQLLESGGGLVQPGGSLRLSCAASGFTFSRYVMHWVRQAPGKGLEWVSYISPSGGVTKYADSVKGRFTISRDNSKNTLYLQMNSLRAEDTAVYYCAKALYPGMGYYYGMDVWGQGTTVTVSS VL: DIQMTQSPSSLSASVGDRVTITCRTSQTVSTFLNWYQQKPGTAPKLLIYAASRLQSGVPSRFSGSGSETDFTLTISRLQPEDFATYYCQQSFTSPRTFGLGTKVEIKR | 18.8 | 0.00513 | 272000
7 | M0095-G09 (Fab, V domains shown) VH: EVQLLESGGGLVQPGGSLRLSCAASGFTFSNYNMHWVRQAPGKGLEWVSVIYPSGGYTVYADSVKGRFTISRDNSKNTLYLQMNSLRAEDTAVYYCARRGNWGGIDYWGQGTLVTVSS VL: DIQMTQSPSSLSASVGDRVTITCRASQSISNWLAWYQQKPGKAPKLLIYKASTLQTGVPSRFSGSGSGTEFSLTISSLQPDDFATYYCQQTYSAPFNFGPGTKVDIKR | 18.6 | 0.0934 | 5.01e+06
8 | M0131-A03 (Fab, V domains shown) VH: EVQLLESGGGLVQPGGSLRLSCAASGFTFSWYTMGWVRQAPGKGLEWVSVIYPSGGMTKYADSVKGRFTISRDNSKNTLYLQMNSLRAEDTAVYYCARTSGGTPWGFWGQGTLVTVSS VL: AQYELTQPASVSGSPGQSITISCTGTNTDVGGYNYVSWYQQYPGKAPKLMIYEVNHRPSGVSNRFSGSKSGNTASLTISGLQAEDEADYYCSSYTYRNTYVFGTGTKVTVLG | 17.4 | 0.046 | 2.65e+06
9 | M0131-C08 (Fab, V domains shown) VH: EVQLLESGGGLVQPGGSLRLSCAASGFTFSWYSMTWVRQAPGKGLEWVSSISPSGGATKYADSVKGRFTISRDNSKNTLYLQMNSLRAEDTAVYYCARGGAASLPFDYWGQGTLVTVSS VL: DIQMTQSPSSVSASVGDRVTITCRASQDVLVSFAWYQQRPGTAPKLLIYAASHLHPGVPSRFSASGSGTDFTLTINGLQPEDFATYYCQQARSFPHTFGQGTRLEKKR | 17.7 | 0.00466 | 264000
10 | M0093-G09 (Fab, V domains shown) VH: EVQLLESGGGLVQPGGSLRLSCAASGFTFSWYSMTWVRQAPGKGLEWVSSISPSGGATKYADSVKGRFTISRDNSKNTLYLQMNSLRAEDTAVYYCARGGAASLPFDYWGQGTLVTVSS VL: DIQMTQSPSSLSASVGDRVTITCRASQSISSFLNWYQQKPGKAPKLLLMYAASSLQSGVPSRFSGSGSGTDFTLTISSLQPEDFATYYCQQSYSTPYTFGQGTKLEIKR | 23 | 0.0105 | 458000
11 | M0131-D12 (Fab, V domains shown) VH: EVQLLESGGGLVQPGGSLRLSCAASGFTFSWYNMYWVRQAPGKGLEWVSYIVPSGGATHYADSVKGRFTISRDNSKNTLYLQMNSLRAEDTAVYYCARALRGYSYGPRGYYYYGMDVWGQGTTVTVSS VL: AQSALTQPPSVSVAPGQTASISCSGNILDNSYASWFQQKPGQSPVMVIHRDNKRPSGIPERFSGSTSGNTATLTISGTQAVDEADYYCQAWDRTTGVFGTGTRLTVLR | 18.4 | 0.00193 | 105000
12 | M0122-D01 (Fab, V domains shown) VH: EVQLLESGGGLVQPGGSLRLSCAASGFTFSHYIMHWVRQAPGKGLEWVSGIYPSGGSTKYADSVKGRFTISRDNSKNTLYLQMNSLRAEDTAVYYCARALVGALDYWGQGTLVTVSS VL: DIQMTQSPSSVSASVGDRVTITCRASQDIRTWLAWYQQKSGKAPKLLIYSSSSLQSGISSRFSGSGSGTDFTLTISNLQPEDSAIYYCQQATTFPWTFGQGTKVEIKR | 20.8 | 0.00427 | 205000
13 | M0128-A06 (Fab, V domains shown) VH: EVQLLESGGGLVQPGGSLRLSCAASGFTFSHYKMNWVRQAPGKGLEWVSYIGSSGGKTGYADSVKGRFTISRDNSKNTLYLQMNSLRAEDTALYYCARVGVWYGMDVWGQGTLVTVSS VL: AQSALTQPPSLSVSAGQTATITCSPSGGGLRNKYVSWYQQRPGQSPFLVIYKDAERPSGIPERFSGSNFGNTATLTIGGTQAMDEADFYCLAWDSTTRVFGGGTKLTVLS | 18.4 | 0.00612 | 332000
14 | M0124-H10 (Fab, V domains shown) VH: EVQLLESGGGLVQPGGSLRLSCAASGFTFSNYFMNWVRQAPGKGLEWVSSIGSSGGYTRYADSVKGRFTISRDNSKNTLYLQMNSLRAEDTAVYYCARVGVWYGMDVWGQGTTVTVSS VL: DIQMTQSPATLSLSAGERATLSCRASQSVNIDVGWYQQKPGQAPRLLIYDASKRATGIPTRFSGSGSGTDFTLTIANLEPEDFAVYYCQQRARWLTFGGGTRLEIKR | 20.3 | 0.0012 | 59100
15 | M0128-F11 (Fab, V domains shown) VH: EVQLLESGGGLVQPGGSLRLSCAASGFTFSFYVMGWVRQAPGKGLEWVSWIGPSGGRTWYADSVKGRFTISRDNSKNTLYLQMNSLRAEDTAVYYCARDRGWYGIDVWGQGTTVTVSS VL: DIQMTQSPSSLSASVGDRVTITCRASQYISTYLAWYQQKPGKAPKLLIYKASDLESGVPSRFSGSGSGTEFTLTINSLQPDDFATYYCQQYNTYWTFGHGTKVEIKR | 18.3 | 0.0143 | 780000
16 | M0099-D05 (Fab, V domains shown) VH: EVQLLESGGGLVQPGGSLRLSCAASGFTFSNYIMSWVRQAPGKGLEWVSSIWPSGGHTRYADSVKGRFTISRDNSKNTLYLQMNSLRAEDTAVYYCARAGSYYAGDYWGQGTLVTVSS VL: DIQMTQSPGTLSLSPGERATLSCRASQTVSSNYLAWYQQKPGLAPRLLIYGVSNRAAGIPDRFSGRGSGTDFTLIINRLEPEDFAVYYCQHYGSSAFTFGRGTKLEIER | 17.5 | 0.00578 | 331000
17 | M0117-B07 (Fab, V domains shown) VH: EVQLLESGGGLVQPGGSLRLSCAASGFTFSHYTMWWVRQAPGKGLEWVSRIWPSGGTTRYADSVKGRFTISRDNSKNTLYLQMNSLRAEDTAVYYCARGGSYLAFDIWGQGTMVTVSS VL: DIQMTQSPATLSLSPGERATLSCRASQSVSSYLAWYQQKPGQAPRLLIYDASNRATGIPARFSGSGSGTDFTLTISSLEPEDFAVYYCQQRSNFGGGTKVEIKR | 22.8 | 0.00826 | 362000
18 | M0117-C04 (Fab, V domains shown) VH: EVQLLESGGGLVQPGGSLRLSCAASGFTFSHYLMFWVRQAPGKGLEWVSSIWPSGGNTKYADSVKGRFTISRDNSKNTLYLQMNSLRAEDTAVYYCARPAYYYAMDVWGQGTTVTVSS VL: DIQMTQSPLSLSASVGDRVTITCRASQTFNNYLNWYQQKPGKAPKLLIYAASTLQSGVPSRFSGSGSGTDFTLTISSLQPEDFATYYCQQANSFPFTFGPGTKVDIKR | 16.6 | 0.00334 | 201000
19 | M0106-C06 (Fab, V domains shown) VH: EVQLLESGGGLVQPGGSLRLSCAASGFTFSHYTMQWVRQAPGKGLEWVSSIYPSGGATKYADSVKGRFTISRDNSKNTLYLQMNSLRAEDTAMYYCARSGYYYGLDVWGQGTTVTVSS VL: DIQMTQSPATLSASVGDRVTITCRASQSVSRWLAWYQQKPGKAPKLLIYKASTLESGVPSRFSGSGSGTEFTLTISSLQPDDFATYYCQQYGAFGQGTKVEIRR | 22.6 | 0.0142 | 628000
20 | M0106-E12 (Fab, V domains shown) VH: EVQLLESGGGLVQPGGSLRLSCAASGFTFSHYNMTWVRQAPGKGLEWVSSIWPSGGATRYADSVKGRFTISRDNSKNTLYLQMNSLRAEDTAVYYCARTSRFYGMDVWGQGTTVTVSS VL: DIQMTQSPGTLSLSPGERATLSCRPSQSVYSNYLAWYQQKPGQAPRLLIYGASTRATGIPDRFSGSASGTDFTLTISRLEPEDFAVYYCQQYGNSYTFGPGTKVDIKR | 19.9 | 2.44 | 1.23e+08
